Columns and labels:
Assay in all cases: fluorescence polarisation
TLH4 nucleosome (human) = TLH4 nucleosome (human) (UniProt P04908)
[1] = biological target: H3-H4 (Alexa-488 H4) (human) (UniProt P68431)
TLH3 nucleosome (human) = TLH3 nucleosome (human) (UniProt P04908)
[2] = biological target: H2A-H2B (Alexa-488 H2B) (human) (UniProt P04908)

Substance: SMARCAD1 (from UniProt Q9H4L7 1-1026) (enzyme)
- Kd (TLH4 nucleosome (human)): 0.11 µM
- Kd [1]: 0.0012 µM
- Kd (TLH3 nucleosome (human)): 0.33 µM
- Kd [2]: 0.01 µM

From paper doi:10.1101/2021.04.14.439859
